Experimental findings from patent US20160281093, “METHODS AND COMPOSITIONS FOR INTERFERENCE WITH DNA POLYMERASE AND DNA SYNTHESIS” (GEORGIA STATE UNIVERSITY RESEARCH FOUNDATION, INC., published 2016) are described below.

This data set concerns the target E. coli DNA polymerase I (Escherichia coli, UniProt P00582 P00582:1-928). Put plainly: EMSA; Kd stated as determined from binding curves but value not given; RNA 50 nM, pol 0-80 nM, 10 mM KCl, 1 mM DTT, 5% glycerol, pH 7.0. As to conditions: tags: New England Biolabs; label: body-labeled 32P. The procedure: A mixture (5 μL) containing bodily ³²P-labeled RNA 69-mer (50 nM, final), DNA polymerase I (0, 20, 40, 60, or 80 nM), and binding buffer (final: 10 mM KCl, 1 mM DTT, 5% glycerol, pH 7.0) was incubated at room temperature for 30 minutes and then placed at 4° C. overnight. The binding solutions were mixed with the gel loading dye (final: 10 mM KCl, 1 mM DTT, 5% glycerol, 0.001% xylene blue w/v) and then loaded on 10% non-denaturing polyacrylamide gel in the running buffer (5 mM Tris-HCl, 10 mM EDTA, and pH 7.5). The gel was pre-run for 1 hour at 250 volts. After loading the samples, the gel was run with a constant voltage (250 volts) for one hour; all operations were performed in 4° C. cold room. The gel was fixed with 7% acetic acid (in methanol), dried, and scanned. The radioactive bands were quantified by phosphorimager using image quantifying software. […] Dissociation constant was determined from the binding curves.
A mixture (5 μL) containing bodily ³²P-labeled RNA 69-mer (50 nM, final), DNA polymerase I (0, 20, 40, 60, or 80 nM), and binding buffer (final: 10 mM KCl, 1 mM DTT, 5% glycerol, pH 7.0) was incubated at room temperature for 30 minutes and then placed at 4° C. overnight. […] The radioactive bands were quantified by phosphorimager using image quantifying software. […] Dissociation constant was determined from the binding curves.
(Mobility shift assays separate free from complexed probe on a gel.)

Sequence of E. coli DNA polymerase I (P00582 whole entry, one chain of several): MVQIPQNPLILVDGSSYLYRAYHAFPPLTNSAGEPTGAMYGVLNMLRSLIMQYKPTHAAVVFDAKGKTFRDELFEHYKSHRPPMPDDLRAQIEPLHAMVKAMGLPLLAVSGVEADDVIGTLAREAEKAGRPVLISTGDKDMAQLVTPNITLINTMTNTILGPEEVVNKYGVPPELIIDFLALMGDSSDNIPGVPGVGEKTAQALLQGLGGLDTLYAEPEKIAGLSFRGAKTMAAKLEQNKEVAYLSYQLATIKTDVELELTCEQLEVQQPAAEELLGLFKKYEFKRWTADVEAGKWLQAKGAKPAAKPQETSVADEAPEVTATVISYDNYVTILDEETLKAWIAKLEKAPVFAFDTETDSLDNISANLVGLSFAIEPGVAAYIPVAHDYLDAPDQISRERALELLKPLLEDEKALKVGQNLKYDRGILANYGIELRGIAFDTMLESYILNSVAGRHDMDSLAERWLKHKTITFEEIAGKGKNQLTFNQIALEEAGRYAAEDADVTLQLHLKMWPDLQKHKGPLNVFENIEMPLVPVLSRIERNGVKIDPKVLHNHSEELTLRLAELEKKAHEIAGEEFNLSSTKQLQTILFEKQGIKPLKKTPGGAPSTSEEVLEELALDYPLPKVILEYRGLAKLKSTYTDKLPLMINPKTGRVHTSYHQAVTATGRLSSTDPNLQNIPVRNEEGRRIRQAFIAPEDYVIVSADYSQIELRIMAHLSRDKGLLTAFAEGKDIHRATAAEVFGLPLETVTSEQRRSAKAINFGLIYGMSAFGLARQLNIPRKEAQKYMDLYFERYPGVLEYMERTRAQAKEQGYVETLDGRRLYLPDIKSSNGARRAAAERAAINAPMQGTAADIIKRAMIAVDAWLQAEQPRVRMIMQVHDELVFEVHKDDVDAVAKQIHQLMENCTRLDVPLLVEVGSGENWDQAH

B1: RNA-69mer (ssRNA)
RNA: GGGAGCCCUGUCACCGGAUGUGCUUUCCGGUCUGAUGAGUCCGUGAGGACAAAACAGGGCUCCCGAAUU
B1: the binding result is “binds”.
